According to the supplement of paper PMC6379048:

Key:
Assay in all cases: EC50 of free RNA motif oligo competing protein binding to immobilised probe
MRPS2 = MRPS2 (UniProt Q9Y399)
Summary of the method: (§1)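 HEK293-FT lysate (2.5 mg protein/well) was pre-incubated 1 h at 4°C with free RNA oligos (0 nM to 30 μM), then 30 min at 4°C with the same 5′-amino-C6 oligos coupled to NHS-Sepharose beads. Bound proteins were quantified by label-free LC-MS/MS in three biological replicates and two independent experiments, and normalised to the water control. EC50 came from a four-parameter log-logistic fit; Kd is EC50 times a protein-dependent depletion factor.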

MRPS26 = MRPS26 (UniProt Q9BYN8)
Summary of the method: as §1

SF3B3 = target: T1, SF3B3 (UniProt Q15393)
T1 sequence: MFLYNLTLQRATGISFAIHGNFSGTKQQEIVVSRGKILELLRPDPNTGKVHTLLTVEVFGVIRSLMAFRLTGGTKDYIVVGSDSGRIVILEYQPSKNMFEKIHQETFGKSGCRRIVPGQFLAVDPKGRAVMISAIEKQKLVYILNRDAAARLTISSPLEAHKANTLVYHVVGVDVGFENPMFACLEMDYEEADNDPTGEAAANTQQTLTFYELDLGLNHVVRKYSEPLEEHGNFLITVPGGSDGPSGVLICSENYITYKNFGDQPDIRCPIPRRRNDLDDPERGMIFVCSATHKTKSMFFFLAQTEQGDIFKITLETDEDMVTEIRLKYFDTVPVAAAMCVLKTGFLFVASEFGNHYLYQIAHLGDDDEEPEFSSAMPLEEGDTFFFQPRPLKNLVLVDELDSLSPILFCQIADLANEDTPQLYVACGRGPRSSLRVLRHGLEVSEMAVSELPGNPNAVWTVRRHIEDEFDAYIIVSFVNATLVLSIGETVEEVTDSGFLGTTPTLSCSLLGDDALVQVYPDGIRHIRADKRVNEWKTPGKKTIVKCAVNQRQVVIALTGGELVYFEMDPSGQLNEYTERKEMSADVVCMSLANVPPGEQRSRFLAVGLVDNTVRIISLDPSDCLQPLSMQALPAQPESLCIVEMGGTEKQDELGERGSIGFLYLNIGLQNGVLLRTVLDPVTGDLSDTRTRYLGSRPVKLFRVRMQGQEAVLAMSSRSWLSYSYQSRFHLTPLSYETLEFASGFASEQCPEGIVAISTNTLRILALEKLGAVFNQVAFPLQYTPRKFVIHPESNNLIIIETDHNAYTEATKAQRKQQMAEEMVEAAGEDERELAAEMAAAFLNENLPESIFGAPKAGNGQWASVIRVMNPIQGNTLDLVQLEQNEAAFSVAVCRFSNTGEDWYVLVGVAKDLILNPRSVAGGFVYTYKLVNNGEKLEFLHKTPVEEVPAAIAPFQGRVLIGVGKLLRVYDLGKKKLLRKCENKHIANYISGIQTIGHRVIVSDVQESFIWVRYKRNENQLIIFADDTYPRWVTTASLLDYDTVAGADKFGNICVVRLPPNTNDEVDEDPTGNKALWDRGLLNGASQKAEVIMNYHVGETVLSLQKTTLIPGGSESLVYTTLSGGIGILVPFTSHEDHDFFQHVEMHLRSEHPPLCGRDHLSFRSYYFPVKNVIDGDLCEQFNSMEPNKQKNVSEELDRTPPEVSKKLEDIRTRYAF
Summary of the method: as §1

P4HB = P4HB (UniProt P07237)
Summary of the method: as §1

RPS3 = RPS3 (UniProt P23396)
Summary of the method: as §1

RPS25 = RPS25 (UniProt P62851)
Summary of the method: as §1

DDX21 = target: T2, DDX21 (UniProt Q9NR30)
T2 sequence: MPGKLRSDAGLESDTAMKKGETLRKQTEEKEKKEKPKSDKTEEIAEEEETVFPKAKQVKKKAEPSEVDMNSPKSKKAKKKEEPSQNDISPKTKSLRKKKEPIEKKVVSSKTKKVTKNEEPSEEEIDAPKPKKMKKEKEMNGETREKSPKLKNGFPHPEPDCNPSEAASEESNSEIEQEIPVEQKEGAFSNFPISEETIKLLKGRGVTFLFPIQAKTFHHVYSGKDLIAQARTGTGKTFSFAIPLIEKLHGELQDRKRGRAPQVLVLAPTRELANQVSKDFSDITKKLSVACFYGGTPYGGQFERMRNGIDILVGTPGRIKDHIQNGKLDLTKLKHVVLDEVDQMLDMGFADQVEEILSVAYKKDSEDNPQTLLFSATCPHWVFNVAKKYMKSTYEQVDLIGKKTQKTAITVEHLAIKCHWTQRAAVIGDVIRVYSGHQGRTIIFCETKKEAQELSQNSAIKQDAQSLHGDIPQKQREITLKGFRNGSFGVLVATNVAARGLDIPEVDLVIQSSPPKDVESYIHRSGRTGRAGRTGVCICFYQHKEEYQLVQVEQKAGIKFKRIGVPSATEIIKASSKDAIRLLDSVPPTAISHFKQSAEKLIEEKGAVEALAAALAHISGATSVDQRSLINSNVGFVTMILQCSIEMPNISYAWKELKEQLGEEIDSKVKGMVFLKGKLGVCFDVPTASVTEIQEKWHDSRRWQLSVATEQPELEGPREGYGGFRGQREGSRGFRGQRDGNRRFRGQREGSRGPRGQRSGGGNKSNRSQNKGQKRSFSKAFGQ
Summary of the method: as §1

ICT1 = ICT1 (UniProt Q14197)
Summary of the method: as §1

RPS19 = RPS19 (UniProt P39019)
Summary of the method: as §1

RPS28 = RPS28 (UniProt P62857)
Summary of the method: as §1

Sequence of P4HB (P07237 whole entry, looked up): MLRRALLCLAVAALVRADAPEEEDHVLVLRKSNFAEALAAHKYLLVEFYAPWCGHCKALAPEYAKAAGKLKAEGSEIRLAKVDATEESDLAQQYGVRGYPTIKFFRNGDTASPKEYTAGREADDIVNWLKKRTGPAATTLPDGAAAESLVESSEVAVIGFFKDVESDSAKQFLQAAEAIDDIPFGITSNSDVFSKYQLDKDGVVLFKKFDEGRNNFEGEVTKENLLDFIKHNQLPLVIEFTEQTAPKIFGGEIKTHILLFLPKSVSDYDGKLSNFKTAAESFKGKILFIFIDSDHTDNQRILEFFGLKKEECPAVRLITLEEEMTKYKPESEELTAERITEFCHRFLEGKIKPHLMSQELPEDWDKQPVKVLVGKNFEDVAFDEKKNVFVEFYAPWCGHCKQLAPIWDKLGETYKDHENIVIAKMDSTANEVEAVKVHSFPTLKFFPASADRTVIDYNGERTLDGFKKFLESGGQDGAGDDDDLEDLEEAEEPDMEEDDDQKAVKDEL

**Q.** With UAUUUAU as the sequence, how does the EC50 (MRPS2) read?
**A.** Its EC50 is 29.1 nM.

**Q.** And the EC50 (MRPS26)?
**A.** The EC50 was 35.1 nM.

**Q.** With AAUAAA as the sequence, how does the EC50 (SF3B3) read?
**A.** Its EC50 is 4880 nM.

**Q.** What about the EC50 (P4HB) of the same sequence?
**A.** The EC50 was 40.4 nM.

**Q.** How did the EC50 (RPS3) turn out when CUGUCCU was run?
**A.** Its EC50 is 307 nM.

**Q.** What about the EC50 (RPS25) of the same sequence?
**A.** The EC50 was 72.5 nM.

**Q.** What about the EC50 (DDX21) of the same sequence?
**A.** Its EC50 is 116 nM.

**Q.** What about the EC50 (ICT1) of the same sequence?
**A.** Its EC50 is 125 nM.

**Q.** What about the EC50 (RPS19) of the same sequence?
**A.** The EC50 was 176 nM.

**Q.** What about the EC50 (RPS28) of the same sequence?
**A.** The EC50 was 212 nM.
